Assay results from paper PMC2633459 (Molecular Vision, 2009).
Where “and” joins values, the source holds several entries; their conditions need not be identical. Identical values can stand only once.

B1: wild type human βA3-crystallin (natural protein, UniProt P05813 1-215, looked up)
chain: METQAEQQELETLPTTKMAQTNPTPGSLGPWKITIYDQENFQGKRMEFTSSCPNVSERSFDNVRSLKVESGAWIGYEHTSFCGQQFILERGEYPRWDAWSGSNAYHIERLMSFRPICSANHKESKMTIFEKENFIGRQWEISDDYPSLQAMGWFNNEVGSMKIQSGAWVCYQYPGYRGYQYILECDHHGGDYKHWREWGSHAQTSQIQSIRRIQQ
notes: human βA3-crystallin, wild type, recombinant; no tag is mentioned; also called WT βA3; βA3 WT; source: E. coli, purified (successive ion-exchange chromatography)
B2: doubly deamidated mutant βA3 Q85E/Q180E (natural protein, human, UniProt P05813 1-215, looked up)
chain: METQAEQQELETLPTTKMAQTNPTPGSLGPWKITIYDQENFQGKRMEFTSSCPNVSERSFDNVRSLKVESGAWIGYEHTSFCGQEFILERGEYPRWDAWSGSNAYHIERLMSFRPICSANHKESKMTIFEKENFIGRQWEISDDYPSLQAMGWFNNEVGSMKIQSGAWVCYQYPGYRGYEYILECDHHGGDYKHWREWGSHAQTSQIQSIRRIQQ
notes: human βA3-crystallin with Q85E and Q180E (mimic of deamidation), recombinant; Homo-dimer by SEC-MALS at 37 °C; precipitates at 55 °C when alone; also called DM βA3; βA3 DM; source: E. coli, purified (successive ion-exchange chromatography)
B3: wild type human βB1-crystallin (natural protein, UniProt P53674 1-252, looked up)
chain: MSQAAKASASATVAVNPGPDTKGKGAPPAGTSPSPGTTLAPTTVPITSAKAAELPPGNYRLVVFELENFQGRRAEFSGECSNLADRGFDRVRSIIVSAGPWVAFEQSNFRGEMFILEKGEYPRWNTWSSSYRSDRLMSFRPIKMDAQEHKISLFEGANFKGNTIEIQGDDAPSLWVYGFSDRVGSVKVSSGTWVGYQYPGYRGYQYLLEPGDFRHWNEWGAFQPQMQSLRRLRDKQWHLEGSFPVLATEPPK
notes: human βB1-crystallin, wild type, recombinant; Mixture of monomers and dimers at the concentrations of the 1:1 experiments; dimer at the higher concentration of the 5:1 experiment; source: E. coli, purified (successive ion-exchange chromatography)
B4: wild type human βB2-crystallin (natural protein, UniProt P43320 1-205, looked up)
chain: MASDHQTQAGKPQSLNPKIIIFEQENFQGHSHELNGPCPNLKETGVEKAGSVLVQAGPWVGYEQANCKGEQFVFEKGEYPRWDSWTSSRRTDSLSSLRPIKVDSQEHKIILYENPNFTGKKMEIIDDDVPSFHAHGYQEKVSSVRVQSGTWVGYQYPGYRGLQYLLEKGDYKDSSDFGAPHPQVQSVRRIRDMQWHQRGAFHPSN
notes: human βB2-crystallin, wild type, recombinant; source: E. coli, purified (successive ion-exchange chromatography)

Key:
[1] = molecular target: the molecule itself; experiment: SEC-MALS; 5:1 molar ratio of βB1 to βA3 (to favour the βB1 dimer), injected immediately (0 min) or after 30 min at 37 °C; same buffer
[2] = molecular target: B3; experiment: SEC-MALS; 1:1 molar ratio of βA3 (WT or DM) with βB1 or βB2, final 0.4–0.5 mg/ml, incubated 90 min at 55 °C; filtered before injection; same buffer; settings: both partners purified
[3] = molecular target: the molecule itself; experiment: SEC-MALS; each crystallin alone, incubated 90 min at 37 °C; Superose 12 10/300 GL; pH 6.8, 29 mM Na2HPO4, 29 mM NaH2PO4, 100 mM KCl, 1 mM EDTA, 1 mM DTT
[4] = molecular target: B2; experiment: native gel or EMSA; blue-native PAGE, 4%–12% Bis-Tris gel, pH 7.0, 200 V, 4 °C; mixtures incubated at 37 °C for 60 min before the gel; settings: both partners purified

Row | Binder | stoichiometry N [1] | binding result [2] | stoichiometry N [3] | binding result [4]
1 | B1 | 2 | binds | – | –
2 | B2 | – | – | 2 | –
3 | B3 | – | – | 2 | –
4 | B4 | – | – | 2 and 4 | binds
